Experimental data published in US20210025886A1 (Alexion, published 2021).

Molecular target: T1, complement fragment C3a (Complement Technologies cat # A118) (human, UniProt P01024 672-748)
T1 construct: domain: C3a; also called purified C3a
Assay: TR-FRET sandwich, purified C3a titrated from 66.6 nM, antibodies 50 nM each
Description: Labeled antibodies were then used to detect C3a in a sample that also contained intact C3 and C3b fragments. […] For the detection assay, complement C3 and fragments C3a and C3b were purchased from Complement Technologies (cat # A113c, A118, and A114, respectively). They were aliquoted and stored at −80° C. Each complement protein was titrated individually or as a mixture in assay buffer (10 mM HEPES pH 7.4, 0.1% BSA) at final concentrations of 66.6 nM serially diluted. Detection antibodies were combined in assay buffer to make a C3a detection mixture at final concentrations of 50 nM each in assay. Then, 15 μl of the appropriate C3 reagent was added to the appropriate wells of a white 384 well Optiplate (Perkin Elmer Cat. #600-7290). To each well, 15 μl antibody detection mix was then added. The plate was spun at 4000 RPM for 20 seconds and read on a Paradigm Spectramax instrument using the Cisbio htrf cartridge (excite at 340 nm and emit at 615 nm and 665 nm). The plate was read periodically and the signal calculated by dividing the 665 signal by the 615 signal and multiplying by 10000.

T1 sequence (P01024 672-748 limits assumed): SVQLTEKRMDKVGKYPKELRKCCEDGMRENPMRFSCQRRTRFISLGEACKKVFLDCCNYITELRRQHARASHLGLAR

binding result: binds
B1: C3a antibody YHP133 (antibody, human IgG1, kappa, V domains shown)
VH: EVQLQQSGAELVRPGASVKLSCTASGFNIKDSLIHWVKQRPEQGLEWIGWIDPDDGETKYAPKFQDKATITADTSSNTAYLQFSSLTSEDTAIYYCAGRSGEGYFDYWGQGTTVTVSS
VL: DIVMTQSPATLSVTPGDRVSLSCRASQSISDYLHWYQQKSHESPRLLIKYASQSISGIPSRFSGSGSGSDFTLSINSVEPEDVGVYYCQNGHSFPLTFGAGTKVEIKR
modifications: labeled with d2 dye (Cisbio d2 labeling kit); site not stated
notes: Synthesized and purified according to standard procedures; used d2-labeled in the FRET assays; also called the other C3a antibody; acceptor antibody
